Assay results taken from US20080306243A1 (NEC, published 2008).

Target: T1, HLA-A2402 molecule, which is a product of the HLA-A*2402 gene (human)
T1 construct: MHC class I molecule on C1R-A24 cells, emptied by acid and reassociated with added β2m and the test peptide; also called HLA-A24 molecule; human HLA-A2402 molecule
Test: flow cytometry; reassociation of peptide, added β2m and HLA-A2402 on acid-stripped C1R-A24 cells, stained with mAb 17A12
Description: After neutralization, purified β2m was added to C1R-A24 cells, the obtained product was added to serial dilutions of a peptide, and incubated on ice for 4 hours.
Subsequently, the MHC-pep count per C1R-A24 cell (proportional to the strength of fluorescence of the above-mentioned fluorescent antibody) was quantitatively measured using an FACScan fluorescence-activated cell sorter (Becton Dickinson Biosciences). A binding dissociation constant Kd value between the HLA-A24 molecule and the peptide was calculated from the average strength of fluorescence per cell by a published method (Udaka et al., Immunogenetics, 51, 816-828, 2000).

| Binder | -log Kd |
| --- | --- |
| QVFQVSHSF (Synthetic 9-mer peptide of PSA (GenBank M26663)) [SEQ ID NO 5] | 7.32 -log Kd |
| VHPQKVTKF (Synthetic 9-mer peptide of PSA (GenBank M26663)) [SEQ ID NO 7] | 6.65 -log Kd |
| ILLGRHSLF (Synthetic 9-mer peptide of PSA (GenBank M26663)) [SEQ ID NO 3] | 7.47 -log Kd |
| ILSRIVGGW (Synthetic 9-mer peptide of PSA (GenBank M26663)) [SEQ ID NO 6] | 7.21 -log Kd |

Further lines, results first:

| -log Kd | Binder |
| --- | --- |
| 5.38 -log Kd | GVLQGITSW (Synthetic 9-mer peptide of PSA (GenBank M26663)) [SEQ ID NO 8] |
| 6.34 -log Kd | VLVHPQWVL (Synthetic 9-mer peptide of PSA (GenBank M26663)) [SEQ ID NO 9] |
